Values of other authors in publication PMC3037027.

Biological target: U2AF65 UHM (Homo sapiens) (UniProt P26368)
Assay: ITC

UniProt P26368, sequence (P26368 372-475, one chain of several): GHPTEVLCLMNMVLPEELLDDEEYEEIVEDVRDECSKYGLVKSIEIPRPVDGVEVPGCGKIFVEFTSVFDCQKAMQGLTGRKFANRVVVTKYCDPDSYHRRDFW

Kd: 12 nM
Substance: SF1 1-255 (from UniProt Q15637)
